The assay has as its target T1, CBM3a (family IIIa carbohydrate binding module) of the cellulosomal scaffolding protein CipC (Clostridium cellulolyticum (Ruminiclostridium cellulolyticum) H10).
T1 chain: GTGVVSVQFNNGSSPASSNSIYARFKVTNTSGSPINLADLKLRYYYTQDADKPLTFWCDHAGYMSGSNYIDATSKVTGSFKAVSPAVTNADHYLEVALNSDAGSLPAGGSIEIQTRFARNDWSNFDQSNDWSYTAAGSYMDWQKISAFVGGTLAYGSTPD
As to the kind of experiment: ITC. The settings on record: domain or fragment; C-terminal His6 tag omitted. Limits not printed and no X2 feature in the entry: estimated from the CipC module order (CBM3a-X2-Coh1..7-X2-Coh8) and the ~95-aa X2 size (1EHX is the X2-N homologue). Both edges are uncertain by about 10 residues; the segment should contain the NGNT motif. Methods sometimes call this protein X2-N, but Results state X2-C was used in vitro. / C-terminal His6 tag omitted; modification not given.

The source of these data is PMC9022034.

B1: X2-C module of the cellulosomal scaffolding protein CipC (protein)
chain: VGDVTPVNPTITPSTASFDKYVPANVNVTLTPNGNTFKGITGLTSGTDFTVSNNVVTISKSYLSTLAVGSKTLTFDFGVTNNPVLTLTITDSTPVV
As to B1, the Ka is 80200 M⁻¹.
